Patent US20140348834A1 (published 2014)
Read-outs that look alike come from different tables or passages of the source.

Tests used:
human IL-17A [1] = molecular target: T1, human IL-17A (human, UniProt Q16552 24-155); experiment: hIL17A ELISA
T1 construct: Recombinant; biotinylated in the ELISA; also called hIL-17; hIL17A

human IL-17A/F = molecular target: T2, human IL-17A/F (human, UniProt Q16552 24-155; Q96PD4 31-163); experiment: SPR (Biacore 3000), antibody captured by anti-Fc, antigen in solution;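 further: purified recombinant IL-17 antigens flowed over captured antibodies in HBS-EP buffer, global Langmuir one-to-one fit of association and dissociation phases, KD derived from koff over kon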
T2 construct: Recombinant; biotinylated in the ELISA; also called hIL-17A/F; HuIL-17A/F
T2 sequence (Q16552 24-155, chain 1 of 2): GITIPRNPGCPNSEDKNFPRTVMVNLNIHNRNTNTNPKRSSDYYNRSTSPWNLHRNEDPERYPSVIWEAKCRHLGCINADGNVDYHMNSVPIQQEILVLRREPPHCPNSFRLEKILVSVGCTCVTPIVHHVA
T2 sequence (Q96PD4 31-163, chain 2 of 2): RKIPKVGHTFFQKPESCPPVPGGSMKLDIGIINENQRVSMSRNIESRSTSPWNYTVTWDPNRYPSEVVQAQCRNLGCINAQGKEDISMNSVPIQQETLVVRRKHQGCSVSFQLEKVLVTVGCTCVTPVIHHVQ

mouse IL-17A = molecular target: T3, mouse IL-17A (mouse, UniProt Q62386 26-158, limits assumed); experiment: as above
T3 construct: Purified recombinant protein in SPR; also called MuIL-17A; murine IL-17A
T3 sequence (looked up): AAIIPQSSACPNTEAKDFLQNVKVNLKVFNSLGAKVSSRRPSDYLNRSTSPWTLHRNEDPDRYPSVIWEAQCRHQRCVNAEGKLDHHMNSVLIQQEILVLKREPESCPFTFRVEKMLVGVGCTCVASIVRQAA

cynomolgus monkey IL-17A [2] = molecular target: T4, cynomolgus monkey IL-17A (cynomolgus monkey, UniProt A0A2K5TTB0 24-155); experiment: as above
T4 construct: biotinylated in the ELISA; also called cyno IL-17; Cyno IL-17A
T4 sequence (A0A2K5TTB0 entry or part of it): as the sequence (Q16552 24-155, chain 1 of 2) above, with T3A, P8S, N34S, I77V, N78K, P104R counted along it

human IL-17A [3] = molecular target: T1, human IL-17A; experiment: as above
rat IL-17A = molecular target: T5, rat IL-17A (rat, UniProt Q61453 18-150, limits assumed); experiment: as above
T5 construct: Purified recombinant protein in SPR
T5 sequence (looked up): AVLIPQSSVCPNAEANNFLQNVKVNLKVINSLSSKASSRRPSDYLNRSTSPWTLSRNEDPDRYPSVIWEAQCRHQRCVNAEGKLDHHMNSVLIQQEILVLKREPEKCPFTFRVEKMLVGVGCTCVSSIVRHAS

cynomolgus monkey IL-17A [4] = molecular target: T4, cynomolgus monkey IL-17A; experiment: cell-based or functional assay
human IL-17A [5] = molecular target: T1, human IL-17A; experiment: cell-based or functional assay
human IL-17A [6] = molecular target: T1, human IL-17A; experiment: cell-based or functional assay; remark: listed apart in the source
human IL-17A [7] = molecular target: T1, human IL-17A; experiment: cell-based or functional assay; remark: listed apart in the source
cynomolgus monkey IL-17A [8] = molecular target: T4, cynomolgus monkey IL-17A; experiment: cell-based or functional assay; remark: listed apart in the source

T1 sequence (Q16552 24-155): as the sequence (Q16552 24-155, chain 1 of 2) above

B1: IL17-h5C5.14 (antibody, V domains shown)
VH: EVQLVQSGAEVKKPGASVKVSCKASGYTFTDYEFHWVRQAPGQGLEWMGVIHPGNGGTAYNQNFRDRVTITADKSTSTAYMELSSLRSEDTAVYYCARFLTYEGYFDYWGQGTLVTVSS
VL: EIVMTQSPATLSVSPGERATLSCKASQSVSIDVGWFQQKPGQSPRLLIYHASNRYTGVPARFSGSGSGTDFTLTISSLQPEDFAVYFCQQDYSSPYTFGQGTKLEIKR
notes: IgG; constant regions not specified; also called h5C5.14 (VH.1-Vk.3a)
B1 was tested, and the EC50 (human IL-17A [1]) was 0.03 nM, the Kd (human IL-17A/F) was 1.11 nM and the koff (human IL-17A/F) was 0.00119 s⁻¹. It also gave a kon (human IL-17A/F) of 1.07e+06 M⁻¹ s⁻¹, a Kd (mouse IL-17A) of 1.86 nM and a koff (mouse IL-17A) of 0.000494 s⁻¹. The kon (mouse IL-17A) was 266000 M⁻¹ s⁻¹, the Kd (cynomolgus monkey IL-17A [2]) was 0.245 nM and the koff (cynomolgus monkey IL-17A [2]) was 0.000229 s⁻¹. The kon (cynomolgus monkey IL-17A [2]) was 934000 M⁻¹ s⁻¹, the Kd (human IL-17A [3]) was 0.363 nM and the koff (human IL-17A [3]) was 0.000472 s⁻¹. The kon (human IL-17A [3]) was 1.3e+06 M⁻¹ s⁻¹, the Kd (rat IL-17A) was 5.56 nM and the koff (rat IL-17A) was 0.00398 s⁻¹. For the same binder, the kon (rat IL-17A) was 716000 M⁻¹ s⁻¹, the “Potency (pM), IL-17-driven IL-6 production in HS27 cells” value (from here on “Potency (pM)”) (cynomolgus monkey IL-17A [4]) was 16 pM and the “Potency (pM)” value (human IL-17A [5]) was 18 pM.

B2: IL17-h5C5.21 (antibody, V domains shown)
VH: EVQLVQSGAEVKKPGASVKVSCKASGYTFTDYEFHWVRQAPGQGLEWIGVIHPGNGGTAYNQNFRDRATLTADKSTSTAYMELSSLRSEDTAVYYCTRFLTYEGYFDYWGQGTLVTVSS
VL: NIVMTQSPATLSVSPGERATLSCKASQSVSIDVGWFQQKPGQSPRLLIYHASNRYTGVPARFSGSGSGTDFTLTISSLQPEDFAVYFCQQDYSSPYTFGQGTKLEIKR
notes: IgG; constant regions not specified; also called h5C5.21 (VH.1b-Vk.3c)
B2 was tested, and the EC50 (human IL-17A [1]) was 0.03 nM, the Kd (human IL-17A/F) was 1.39 nM and the koff (human IL-17A/F) was 0.00111 s⁻¹. The kon (human IL-17A/F) was 801000 M⁻¹ s⁻¹, the Kd (mouse IL-17A) was 3.06 nM and the koff (mouse IL-17A) was 0.000524 s⁻¹. It also gave a kon (mouse IL-17A) of 171000 M⁻¹ s⁻¹, a Kd (cynomolgus monkey IL-17A [2]) of 0.406 nM and a koff (cynomolgus monkey IL-17A [2]) of 0.00024 s⁻¹. The kon (cynomolgus monkey IL-17A [2]) was 591000 M⁻¹ s⁻¹, the Kd (human IL-17A [3]) was 0.729 nM and the koff (human IL-17A [3]) was 0.000395 s⁻¹. It also gave a kon (human IL-17A [3]) of 542000 M⁻¹ s⁻¹, a Kd (rat IL-17A) of 5.97 nM and a koff (rat IL-17A) of 0.0024 s⁻¹. For the same binder, the kon (rat IL-17A) was 402000 M⁻¹ s⁻¹, the “Potency (pM)” value (cynomolgus monkey IL-17A [4]) was 9 pM and the “Potency (pM)” value (human IL-17A [5]) was 9 pM.

B3: ML109-7D7 (antibody, V domains shown)
VH: QVQLQQSGAELVRPGTSVTLSCKASGYRFTDYEIHWIKQTPAQVLEWIGVTDPESGGTLHNPKFDGKATLTADKSSRTAYMELRSLTSEDSAVYYCTRYYKYESFYGMDYWGQGTSVTVSS
VL: QIVLTQSPAIMSAFPGEKVTMTCSASSSISYMCWYQQKPGTSPKRWICDTSKLASGVPVRFSGSGSGTSYSLTINSMETEDAATYYCQQRSSYPWTFGGGTKVEIKR
In the case of B3, the “Potency (pM)” value (human IL-17A [6]) is reported as 81 pM.

B4: ML109-1D8 (antibody, V domains shown)
VH: QVQLQQSGAELVRPGASVKLSCKASGYTFSDYEMHWVKQTPVHGLEWIGVIHPGNGGTAYNQKFRDKATLTADKSSTTAYMELSSLTSEDSAVYYCIRFLTYEGYFDYWGQGTTLTVSS
VL: SIVMTQTPKFLLVSAGDRVTITCKASQSVNNDVAWFQHKPGQSPKLLINYASNRYTGVPDRFTGSGYGTDFTFTISTVQSEDLAIYFCQQDYGSPYTFGGGTTLEIKR
In the case of B4, the “Potency (pM)” value (human IL-17A [6]) is reported as 62 pM.

B5: ML109-5C5 (antibody, V domains shown)
VH: QVQLQQSGAELVRPGASVKLSCKALGYTFTDYEFHWVKQTPVHGLEWIGVIHPGNGGTAYNQNFRDKATLTADKSSSTAYMELSSLTSEDSGVYYCTRFLTYEGYFDYWGQGTALTVSS
VL: NIVMTQTPKFLLVSPGDRVTITCKASQSVSIDVGWFQQKPGQSPKLLIYHASNRYTGVPDRFTGSGYGTDFTFTVNTVQAEDLAVYFCQQDYSSPYTFGGGTKLELKR
In the case of B5, the “Potency (pM)” value (human IL-17A [6]) is reported as 23 pM.

B6: ML109-10G9 (antibody, V domains shown)
VH: QVQLKESGPALVAPSQSLSFTCTISGFSLSSYGVHWVRQPPGKGLEWLVVIWSDGTTTYNSALKSRLSISKDNSKSQVFLKMNSLQTDDTAMYYCARDGYYIYTMDYWGQGTSVTVSS
VL: DVVMTQTPLSLPVSLGDQASISCRSSQSLVHSNGNTYLHWYLQRPGQSPKLLIYKVSNRFSGVPDRFSGSGSGTDFTLKISRVEAEDLGLYFCSQGTHAPLTFGAGTKLELNR
B6 was tested, and the “Potency (pM)” value (human IL-17A [6]) was 131 pM.

B7: ML109-8B12 (antibody, V domains shown)
VH: QVQLKESGPGLVAPSQSLSITCTISGFSLTSYGVHWVRQPPGKGLEWLVVIWSDGTTTYNSALKSRLSITRDNSKSQVFLKMNSLQTDDTAIYYCARDSTWDYYYTMDYWGQGTPVTVSS
VL: DVVMTQTPLSLPVSLGDQASISCRSSQSLVHSNGNTYLHWYLQKPGQSPKLLIYKVSNRFSGVPDRFSGSGSGTDFTLKISRVEAEDLGVYFCSQSTHVYTFGGGTKLEIKR
With B7 the “Potency (pM)” value (human IL-17A [6]) was 137 pM.

B8: IL17-h10F7.4 (antibody, V domains shown)
VH: QVQLQQSGAELVRPGTSVTLSCKASGYIFTDYEIHWVKQTPVHGLEWIGVNDPESGGTFYNQKFDGKAELTADKSSSTAYMELRSLTSEDSGVYYCTRYYRYESFYGMDYWGQGTSITVSS
VL: DIQLTQSPSSLSASVGDRVTITCSASSSISYIYWFQQKPGKSPKRWIYATFELASGVPSRFSGSGSGTDYTLTISSLQPEDFATYYCHQRSSYPWTFGQGTKLEIKR
notes: IgG; constant regions not specified
For B8, the EC50 (human IL-17A [1]) was 0.04 nM and the “Potency (pM)” value (human IL-17A [7]) was 117 pM.

B9: IL17-h10F7.9 (antibody, V domains shown)
VH: QVQLQQSGAELVRPGTSVTLSCKASGYIFTDYEIHWVKQTPVHGLEWIGVNDPESGGTFYNQKFDGKAELTADKSSSTAYMELRSLTSEDSGVYYCTRYYRYESFYGMDYWGQGTSITVSS
VL: EIVLTQSPDFQSVTPKEKVTITCSASSSISYIYWFQQKPDQSPKRWIYATFELASGVPSRFSGSGSGTDYTLTINSLEAEDAATYYCHQRSSYPWTFGQGTKLEIKR
notes: as for B8
In the case of B9, the EC50 (human IL-17A [1]) is reported as 0.04 nM and the “Potency (pM)” value (human IL-17A [7]) is reported as 293 pM.

B10: m10F7hIgG1 (antibody, V domains shown)
VH: QVQLQQSGAELVRPGTSVTLSCKASGYIFTDYEIHWVKQTPVHGLEWIGVNDPESGGTFYNQKFDGKAELTADKSSSTAYMELRSLTSEDSGVYYCTRYYRYESFYGMDYWGQGTSITVSS
VL: QIVLTQSPAIMSASPGEKVTMTCSASSSISYIYWFQQKPGTSPKRWIYATFELASGVPARFSGSGSGTSYSLTISSMEAEDAATYYCHQRSSYPWTFGGGSKLEIKR
In the case of B10, the “Potency (pM)” value (cynomolgus monkey IL-17A [8]) is reported as 79 pM and the “Potency (pM)” value (human IL-17A [7]) is reported as 40 pM.

B11: IL17-h10F7.13 (antibody, V domains shown)
VH: EVQLVQSGAEVKKPGSSVKVSCKASGYTFTDYEIHWVRQAPGQGLEWIGVNDPESGGTFYNQKFDGRATLTADKSTSTAYMELSSLRSEDTAVYYCTRYYRYESFYGMDYWGQGTTVTVSS
VL: QIVLTQSPSSLSASVGDRVTITCSASSSISYIYWFQQKPGKSPKRWIYATFELASGVPSRFSGSGSGTDYTLTISSLQPEDFATYYCHQRSSYPWTFGQGTKLEIKR
notes: as for B8
With B11 the EC50 (human IL-17A [1]) was 0.1 nM, the “Potency (pM)” value (cynomolgus monkey IL-17A [8]) was 429 pM and the “Potency (pM)” value (human IL-17A [7]) was 242 pM.

B12: IL17-h10F7.15 (antibody, V domains shown)
VH: EVQLVQSGAEVKKPGSSVKVSCKASGYTFTDYEIHWVRQAPGQGLEWIGVNDPESGGTFYNQKFDGRATLTADKSTSTAYMELSSLRSEDTAVYYCTRYYRYESFYGMDYWGQGTTVTVSS
VL: EIVLTQSPSSLSASVGDRVTITCSASSSISYIYWFQQKPGKSPKRWIYATFELASGVPSRFSGSGSGTDYTLTISSLQPEDFATYYCHQRSSYPWTFGQGTKLEIKR
notes: as for B8
For B12, the EC50 (human IL-17A [1]) was 0.14 nM, the “Potency (pM)” value (cynomolgus monkey IL-17A [8]) was 499 pM and the “Potency (pM)” value (human IL-17A [7]) was 309 pM.

B13: IL17-h10F7.17 (antibody, V domains shown)
VH: EVQLVQSGAEVKKPGSSVKVSCKASGYTFTDYEIHWVRQAPGQGLEWIGVNDPESGGTFYNQKFDGRATLTADKSTSTAYMELSSLRSEDTAVYYCTRYYRYESFYGMDYWGQGTTVTVSS
VL: QIVLTQSPDFQSVTPKEKVTITCSASSSISYIYWFQQKPDQSPKRWIYATFELASGVPSRFSGSGSGTDYTLTINSLEAEDAATYYCHQRSSYPWTFGQGTKLEIKR
notes: as for B8
In the case of B13, the EC50 (human IL-17A [1]) is reported as 0.1 nM, the “Potency (pM)” value (cynomolgus monkey IL-17A [8]) is reported as 293 pM and the “Potency (pM)” value (human IL-17A [7]) is reported as 510 pM.
